This is an account of results in patent publication US20160151511A1, “PROTEINS AND PROTEIN CONJUGATES WITH INCREASED HYDROPHOBICITY” (priority 2014, published 2016).

One assay deals with T1, GLP-1 receptor (Homo sapiens, UniProt P43220).
T1 construct: expressed in transfected cells; host or cells: CHO-K1/GLP1/Gα15
The assay can be described thus: Cell-based GLP-1 receptor assay, intracellular calcium mobilization in CHO-K1/GLP1/Gα15 (FlexStation). The following applies: Calcium-4. The method, then:
The intracellular calcium change was measured by FlexStation. […] A lower EC50 indicates a higher activity.
Background: Calcium assays in cells follow changes in intracellular calcium, usually with a dye or a luminescent sensor.

In assay [1] the target is GLP-1 receptor on CHO-K1/GLP1/Gα15 cells (UniProt P43220). The assay can be described thus: cell-based or functional assay.
Sequence of GLP-1 receptor on CHO-K1/GLP1/Gα15 cells (P43220 24-463 limits assumed): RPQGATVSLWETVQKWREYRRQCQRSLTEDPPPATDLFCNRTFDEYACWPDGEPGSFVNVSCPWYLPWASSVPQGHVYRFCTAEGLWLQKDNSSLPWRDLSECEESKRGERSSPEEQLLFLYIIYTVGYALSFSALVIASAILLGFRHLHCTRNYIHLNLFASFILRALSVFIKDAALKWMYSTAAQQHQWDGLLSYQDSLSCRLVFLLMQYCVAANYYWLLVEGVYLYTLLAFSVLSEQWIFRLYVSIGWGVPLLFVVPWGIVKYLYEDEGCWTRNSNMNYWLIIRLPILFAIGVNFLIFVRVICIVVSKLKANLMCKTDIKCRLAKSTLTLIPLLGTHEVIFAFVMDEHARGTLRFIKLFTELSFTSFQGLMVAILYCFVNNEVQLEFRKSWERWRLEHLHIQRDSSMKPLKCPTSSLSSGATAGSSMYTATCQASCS
The target of assay [2] is T2, GLP-1 receptor (covalently immobilized on the Biacore biosensor surface) (UniProt P43220 24-145, limits assumed).
T2 construct: also called the receptor
In words: Biacore (SPR), GLP-1 receptor covalently immobilized, peptide injected.

T1 sequence (P43220 24-463, species assumed): as the sequence (P43220 24-463 limits assumed) above

The term EC50 denotes the concentration needed to bring the measured effect to its halfway point. As for “5 kDa-PEG-Cys(37)-GLP-1 (HAEGTFTSDVSSYLEGQAAKEFIAWLVKGRC)”, the half-maximal effective concentration (EC50) in the assay with GLP-1 receptor was determined as 336 nM.

B1: 5 kDa-PEG-Cys(37)-GLP-1 (peptide)
peptide: HAEGTFTSDVSSYLEGQAAKEFIAWLVKGRC
modifications: 5 kDa cysteine-reactive maleimide-PEG on the added Cys at position 37
notes: range 27-56; also called 5 kDa-PEG-GLP-1 (Cys analog); C-terminally PEGylated GLP-1
The Kd is the concentration at which binding is half-saturated. A high value points to lower affinity. Take B1: in assay [1], the EC50 of intracellular calcium mobilization (Calcium-4, FlexStation RFU) is 336 nM. In assay [2], this molecule registered a Kd of 1600 nM.
